Measurements published in US20260049138A1.

Legend:
[1] = molecular target: biotinylated CD3ε epitope peptide; assay: SPR, Biacore T100, biotinylated CD3ε epitope peptide on CM5 via streptavidin, antibody as analyte
[2] = molecular target: CD3ε homodimer protein (human) (UniProt P07766); assay: SPR
CD3ε homodimer protein (human), sequence (P07766 23-126 limits assumed): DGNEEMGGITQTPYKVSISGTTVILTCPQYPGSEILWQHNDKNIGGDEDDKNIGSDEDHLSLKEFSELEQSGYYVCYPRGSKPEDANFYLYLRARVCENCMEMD

| Kd [1] | KD ratio to GLS3000 [2] | Binder |
| --- | --- | --- |
|  | 85800 | GLS3000 H34R (antibody, name in Kabat numbering, V domains shown) VH: QVQLVESGGGVVQPGRSLRLSCAASGFTFSNAWMHWVRQAPGKGLEWVAQIKAKSNNYATYYAESVKGRFTISRDDSKNSLYLQMNSLKTEDTAVYYCRYVHYGAYYGVDAWGQGTTVTVSS VL: DIVMTQSPLSLPVTPGEPASISCRSSQSLVHSNRNTYLRWYQQKPGQAPRLLIYKVSNRFSGVPDRFSGSGSGTDFTLKISRVEAEDVGVYYCGQGTQVPYTFGQGTKLEIK |
|  | 4460 | GLS3000 N28D (antibody, name in Kabat numbering, V domains shown) VH: QVQLVESGGGVVQPGRSLRLSCAASGFTFSNAWMHWVRQAPGKGLEWVAQIKAKSNNYATYYAESVKGRFTISRDDSKNSLYLQMNSLKTEDTAVYYCRYVHYGAYYGVDAWGQGTTVTVSS VL: DIVMTQSPLSLPVTPGEPASISCRSSQSLVHSDRNTYLHWYQQKPGQAPRLLIYKVSNRFSGVPDRFSGSGSGTDFTLKISRVEAEDVGVYYCGQGTQVPYTFGQGTKLEIK |

Continued, binder first:

| Binder | Kd [1] | KD ratio to GLS3000 [2] |
| --- | --- | --- |
| CE115_M (antibody, V domains shown) VH: EVQLVETGGSLVQPGKSLKLTCATSGFTFSNAWMHWVRQSPEKQLEWVAQIKAKSNNYATYYAESVKGRFTISRDDSKSNIYLQMNSLKEEDTAVYYCRYVHYGAYYGVDAWGQGTSVTVSS VL: DVVMTQTPVSMSVSLGGQVSISCRSSQSLVHNNGNTYVSWYIQKPSQSPQLLIYKVSNRFSGISDRFSGSGSGTDFTLKISRVEPDDLGVYYCGQGTQDPYTFGAGTKLELK | 67 nM |  |
| GLS3000 H27dT (antibody, name in Kabat numbering, V domains shown) VH: QVQLVESGGGVVQPGRSLRLSCAASGFTFSNAWMHWVRQAPGKGLEWVAQIKAKSNNYATYYAESVKGRFTISRDDSKNSLYLQMNSLKTEDTAVYYCRYVHYGAYYGVDAWGQGTTVTVSS VL: DIVMTQSPLSLPVTPGEPASISCRSSQSLVTSNRNTYLHWYQQKPGQAPRLLIYKVSNRFSGVPDRFSGSGSGTDFTLKISRVEAEDVGVYYCGQGTQVPYTFGQGTKLEIK |  | 13000 |
| GLS3000 G91S (antibody, name in Kabat numbering, V domains shown) VH: QVQLVESGGGVVQPGRSLRLSCAASGFTFSNAWMHWVRQAPGKGLEWVAQIKAKSNNYATYYAESVKGRFTISRDDSKNSLYLQMNSLKTEDTAVYYCRYVHYGAYYGVDAWGQGTTVTVSS VL: DIVMTQSPLSLPVTPGEPASISCRSSQSLVHSNRNTYLHWYQQKPGQAPRLLIYKVSNRFSGVPDRFSGSGSGTDFTLKISRVEAEDVGVYYCGQSTQVPYTFGQGTKLEIK |  | 72100 |
| GLS3000 H27dV (antibody, name in Kabat numbering, V domains shown) VH: QVQLVESGGGVVQPGRSLRLSCAASGFTFSNAWMHWVRQAPGKGLEWVAQIKAKSNNYATYYAESVKGRFTISRDDSKNSLYLQMNSLKTEDTAVYYCRYVHYGAYYGVDAWGQGTTVTVSS VL: DIVMTQSPLSLPVTPGEPASISCRSSQSLVVSNRNTYLHWYQQKPGQAPRLLIYKVSNRFSGVPDRFSGSGSGTDFTLKISRVEAEDVGVYYCGQGTQVPYTFGQGTKLEIK |  | 354 |
| GLS3000 G89R (antibody, name in Kabat numbering, V domains shown) VH: QVQLVESGGGVVQPGRSLRLSCAASGFTFSNAWMHWVRQAPGKGLEWVAQIKAKSNNYATYYAESVKGRFTISRDDSKNSLYLQMNSLKTEDTAVYYCRYVHYGAYYGVDAWGQGTTVTVSS VL: DIVMTQSPLSLPVTPGEPASISCRSSQSLVHSNRNTYLHWYQQKPGQAPRLLIYKVSNRFSGVPDRFSGSGSGTDFTLKISRVEAEDVGVYYCRQGTQVPYTFGQGTKLEIK |  | 4130 |
